This note sets out measurements from US20250355001A1 (GTINVENT, published 2025).

Where two headings read alike, the source gives them in different places.

For assay [1], the target named is tau fragment 1-155 (human, UniProt P10636 1-472). In words: direct ELISA. Here is the method: (§1) A series of binding ELISA was performed using various truncated versions of the tau protein and 13mer peptide libraries spanning the entire hT40 molecule for mapping the epitopes of anti-tau scAbs (Full list of protein antigens used is given in Table 14). In general, ELISA plates were coated with 1 μg/ml hT40 or dGA or dGAE or other truncated versions of the protein and in the case of biotinylated peptides, plates were coated with 5 μg/ml Streptavidin followed by 1 μg/ml biotinylated peptide. The plates were blocked with 2% MPBS and scAb samples added at desired starting concentrations and double diluted across the plate. Binding was detected using anti-Human C Kappa HRP conjugated secondary antibody and the resulting immunoreaction was developed and absorbance values measured as described above.

Assay [2] has as its target T1, full length human tau protein 2N4R (hT40) (human, UniProt P10636 1-758).
T1 construct: recombinant; also called T441
In words: SPR, scAb captured, tau analyte. Here is the method: (§2) The capture antibody was diluted 1/100 in 10 mM Sodium acetate buffer pH 5.0 and passed over the activated chip surface for a period of at least 420 s. Final ligand immobilisation levels over 12,000 RU were deemed to be satisfactory.
(§3) The scAb to be tested was added only to flow cell 2 so that flow cell 1 could act as a control to subtract any interaction with the analyte and the chip surface. […] The multi-cycle protocol was as follows-Three start-up cycles composed of an initial capture, to the desired level, of the scAb to be tested was performed followed by a 30 s injection of glycine buffer pH 2.0 after each cycle to regenerate the chip surface. […] The target was added for a 120 s association period and 420 s dissociation period followed by another regeneration, 30 s injection of glycine buffer pH 2.0 in between each cycle.
(§4) The single cycle kinetics protocol was similar and utilised the same level of scAb capture. […] In single cycle kinetics the regeneration step was performed only after the final analyte concentration was added. Binding responses were analysed in Biacore X100 evaluation software and data fitted to a 1:1 binding model to obtain kinetic and affinity characterisation.

Assay [3] addresses T1, full length human tau protein 2N4R …. Nature of the assay: hT40 ELISA.
Assay [4] concerns the target T2, aggregated dGAE (human, UniProt P10636 614-708, limits assumed).
T2 construct: dGAE aggregated in vitro with DTT, 700 rpm, 37 C, 24 h; also called dGAE aggregates; dGAE agg
In words: capture ELISA, mAb coated at 1 µg/ml, aggregates titrated, S1G2 scAb detection.

Assay [5] addresses T2, aggregated dGAE. Nature of the assay: capture ELISA, mAb coated at 1 µg/ml, S1G2 scAb detection.
Assay [6] deals with T1, full length human tau protein 2N4R …. In words: SPR, hT40 immobilised, mAb analyte. The protocol: For anti-tau mAb SPR measurements, htau40 was conjugated to the surface of a CM5 sensor chip using amine coupling as explained previously. Briefly, 2 μg/mL htau40 in 10 mM Sodium acetate buffer (pH 4.0) was passed over the activated chip surface (EDC/NHS) in flow cell 2 for a period for 45 s followed by blocking with 1 M ethanolamine-HCl PH 8.5. Flow cell 1 was set up as reference control and blocked simultaneously. Final immobilisation level of htau40 (Rmax) was approximately 250 RU. […] The mAb was added for a 120 s association period and 600 s dissociation period followed by a regeneration cycle of 30 s injection of glycine buffer pH 1.5 in between each cycle. Binding responses were analysed in Biacore X100 evaluation software and data fitted to a 1:1 binding model to obtain kinetic and affinity characterisation.

In assay [7] the target is T3, human tau (hT40) with P301S and G335D of Line 66 mice (human, UniProt P10636 1-758).
T3 construct: transgene product in brain homogenate or plasma; also called L66 human tau
Nature of the assay: Western blot.

Assay [8] addresses T4, tau peptide 145-157 (human).
T4 peptide: ADGKTKIATPRGA
Nature of the assay: ELISA. Here is the method:
as §1

In assay [9] the target is T5, dGAE (tau 297-391) (human, UniProt P10636 614-708).
T5 construct: monomer; also called dGAE95
Nature of the assay: direct ELISA.

Assay [10] concerns the target T6, tau fragment 369-390 (human).
T6 peptide: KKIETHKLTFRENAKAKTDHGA
Nature of the assay: direct ELISA.

Assay [11] addresses T7, tau fragment 369-391 (human).
T7 peptide: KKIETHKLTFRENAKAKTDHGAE
Nature of the assay: ELISA. Here is the method: as §1

The target of assay [12] is T1, full length human tau protein 2N4R …. Nature of the assay: sandwich ELISA, S1D12 mAb capture, scAb detection. The protocol:
Full length tau (hT40), at 1 μg/ml starting concentration was added to designated wells and double diluted across rest of the plates and left to incubate at R/T for 1 h. A series of detection scAbs with varying epitope recognition properties were added at 10 μg/ml to designated wells (FIG. 22). For colourimetric detection HRP conjugated anti-HuCk secondary antibody was used and the resulting immunoreaction was developed and absorbance at 450 nm measured as described previously. Cut-off point for a positive binding event was an absorbance value of 0.3 following background subtraction. In order to enhance the assay sensitivity, a chemiluminescent detection method was adopted where 50 μL SuperSignal ELISA Femto Substrate (Thermo Scientific) was added to each well following incubation with anti-HuCK HRP antibody and subsequent washing. The luminescence was read using Clariostar Plus microplate reader. A further modification to this protocol was done where various detection scAbs were directly conjugated with HRP and detected using chemiluminescent protocol as before.

The target is the same in assay [13]. In words: Biacore. The protocol: as §2, §3, §4
Assay [14] has as its target T6, tau fragment 369-390. In words: direct ELISA.
For assay [15], the target named is T5, dGAE (tau 297-391). In words: direct ELISA. This is another data set of the same source.
Assay [16] deals with dGA (tau 297-390) (human, UniProt P10636 614-707). Nature of the assay: ELISA. Here is the method: as §1

T1 sequence (P10636 other isoform, or with tags, fused parts or gaps limits assumed): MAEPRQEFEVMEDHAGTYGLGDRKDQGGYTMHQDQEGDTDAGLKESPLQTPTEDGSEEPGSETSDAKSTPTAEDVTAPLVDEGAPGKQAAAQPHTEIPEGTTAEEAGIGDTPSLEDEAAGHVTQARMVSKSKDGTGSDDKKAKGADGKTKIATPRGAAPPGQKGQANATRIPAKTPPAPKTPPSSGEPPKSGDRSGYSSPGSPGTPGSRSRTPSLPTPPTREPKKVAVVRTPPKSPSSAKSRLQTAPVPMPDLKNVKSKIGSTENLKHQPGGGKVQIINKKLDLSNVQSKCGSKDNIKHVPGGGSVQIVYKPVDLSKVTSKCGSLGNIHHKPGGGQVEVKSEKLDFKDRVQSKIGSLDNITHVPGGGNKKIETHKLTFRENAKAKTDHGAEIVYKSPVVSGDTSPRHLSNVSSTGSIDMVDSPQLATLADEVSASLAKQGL
T3 sequence (P10636 other isoform, or with tags, fused parts or gaps P301S G335D P301S G335D limits assumed): as the sequence (P10636 other isoform, or with tags, fused parts or gaps limits assumed) above, with P301S, G335D counted along it

B1: 3bF4 scAb (scFv, not shown: small tags and cut ends)
scFv: QVQLQESGPSLVKPSQTLSLTCTVSGFSLSSNGVGWVRQAPGKVPEWLGDISSVGKKYANPALKSRLSFTRDTSKSQVSLSLSSVTTEDTAVYYCVKCRDGGVTYGYDIDYWGPGLLVTVSSEGKSSGASGESKVDDQAVLTQPSSVSKSTGQTVSITCSGSSSNVGLRNYVTWFQQVPGSAPKLLIYGATSRASGIPDRFSGSRSGNTATLIISSLQAEDEADYYCASADTNDGGVFGSGTRLTVLG
notes: scAb
Consider B1, for which the “EC50 (read off the curve)” value in assay [1] was roughly 1 mg/L. Besides, in assay [2], the dissociation constant Kd worked out at 0.14 µM, the koff came to 0.0153 s⁻¹ and the kon was determined as 109000 M⁻¹ s⁻¹.

B2: S1D9 scAb (scFv, not shown: small tags and cut ends)
scFv: QVQLQESGPSLVKPSQTLSLTCTVSGFSLTSNSVGWVRQAPGKAPEWVAGIDSDGEEGYNPALNSRLSITRDTSKNQVSLSLSRVTSEDTAVYYCGRTYRTDGYAYGYVQAIDYWGPGLLVTVSSEGKSSGASGESKVDDRVMLTQPPSVSGSPGQTVSITCSGSFIGISSVGWFQQLPGSGLRTVIFASDGRPSGVPDRFSNSKSGNTATLTISSLQAEDEADYFCGSSDRTQYTGVFGSGTRLTVLS
notes: scAb
With B2, in assay [3], the half-maximal effective concentration (EC50 (read off the curve)) is roughly 1 mg/L.

B3: E2E8 mAb (antibody, mouse IgG2a, V domains shown)
VH: QVQLQESGPSLVKPSQTLSLTCTVSGFSLTDRGVAWVRQAPGKALEWVGTMRSGGTIDYNPALKSRLSITRDTSKSQVFLSLSSVTTEDMAMYYCARGYLSGDRYAWGRGLLVTVSS
VL: QAVLTQPSSVSKSLGQSVSIACSGSRSDIGYGNYVSWFQQIPGSAPKLLIYDTNTRASGVPDRFSGARSGNTATLTINSLQAEDEADYYCANIDSSRSHLFGSGTRLTVLG
notes: sheep-mouse IgG2a chimeric mAb
Turning to B3, the “EC50 (read off the curve)” value in assay [4] was roughly 0.08 µM.

B4: CA4 mAb (antibody, mouse IgG2a, V domains shown)
VH: QVQLQESGPSLVKPSQTLSLTCTVSGFSLTSYSVYWVRQAPGQALEWISIMYASGRVDYNPALKSRLSITRDTSKSQFSLSLSSVTTEDTAVYYCTRGIENWGPGLLVTVSS
VL: DIQVTQSPSSLSASLTERVSITCRTSQSVNNYLSWYQQKPGQAPKLLIYYATRLYTDVPSRFSGSGSGTDYTLTITSLEADDTATYYCLQYDSTPLAFGGGTNVEIKG
notes: sheep-mouse IgG2a chimeric mAb; also called CA4 antibody
Take B4: the binding result in [5] is reported as “no binding (tested: 800 nM)”. Also, in [6], binding was put at a Kd of 0.0013 µM, the off-rate constant (koff) was 0.00128 s⁻¹ and the kon worked out at 1.02e+06 M⁻¹ s⁻¹.

B5: S1D12 mAb (antibody, mouse IgG2a, V domains shown)
VH: QVQLQESGPSLVKPSQTLSLTCTVSGFSLNNNAVGWVRQAPGKVPESLVGCSSDGTCYYNSALKSRLDITRDTSKNQISLSLSSVTTDDAAVYYCTRGHYSIYGYDYLGTIDYWGPGLLVTVSS
VL: QAVLTQPSSVSGSLGQRVSITCSGSSSNVGGGNSVGWYQHLPGSGLKTIIYDTNSRPSGVPDRFSGSRSGNTATLTINSLQAEDEGDYYCVTGDSTTHDDLVGSGTRLTVLG
notes: sheep-mouse IgG2a chimeric mAb; also called S1D12 antibody; SD12
For B5, the half-maximal effective concentration (EC50 (read off the curve)) in assay [4] was roughly 0.03 µM. In assay [7], the binding result was “binds”. In addition, in assay [6], the Kd is 0.000101 µM, the koff was found to be 4.09e-05 s⁻¹ and the kon was found to be 406000 M⁻¹ s⁻¹.

B6: 3aA6 scAb (scFv, not shown: small tags and cut ends)
scFv: QVRLQESGSSLVKPSQTLSLVCTVSGFPLTSNAVGWVRQAPGKAPEWLGLIDIDGDTAYNPALESRLSITRDTSKSQVSLSLSSVAIEDTAVYYCARHYDKWGYADSIDYWGPGLLVTVSSEGKSSGASGESKVDDQALLTQPSSVFGSLGQRVSITCSGSSSNVGYGDYVGWYQQVPGSAPKLLIYDATTRASGVPDRFSGSRSGNTATLTISSLQAEDEADYYCASYQNERSGVFGSGTRLTVLG
notes: scAb
For B6, the binding result in assay [8] is on record as “binds”. In assay [2], this molecule had an equilibrium dissociation constant (Kd) of 0.989 µM, a koff of 0.0188 s⁻¹ and a kon of 19000 M⁻¹ s⁻¹.

B7: S2C6 scAb (scFv, not shown: small tags and cut ends)
scFv: QVQLQESGPSLVKPSQTLSLTCTVSGFSLISNSVGWVRQAPGKAPEWVAGIDTDGEEGYNPALKSQYAASDPDTSKSQVSLSLSSVTSEDTAVYYCGRTYRTDGFAYGYVQAIDYWGPGLLLTISSEGKSSGASGESKVDDQAVLTQPSSVSGSLGQRVSITCSGSFIGISSVGWFQQLPGSGLRTIIVASDGRPSGVPDRFSMSKSGNTATLTISSLQAEDEADYFCGSSDRTQYTGVFGSGTRLTVLG
notes: scAb
For B7, the “EC50 (read off the curve)” value is roughly 0.8 mg/L in assay [9] and roughly 2 mg/L in assay [10].

B8: S1G10 scAb (scFv, not shown: small tags and cut ends)
scFv: QVQLQESGPSLVKPSQTLSLTCTVSGFSLTSNSVGWVRQAPGKAPEWVAGIDTDGEEGYNPALNSRLSITRDTSKSQVSLSLSSVTSEDTAVYYCGRSYRADGLAYGYVQAIDYWGPGLLVTVSSEGKSSGASGESKVDDQAVLTQPSSMSGSLGQRVSITCSGSFIGISSVGWFQQLPGSGLRTIIVASDGRPSGVPDRFSMSKSGNTATLTISSLQAEDEADYFCGSSDRTQYTGVFGSGTRLTVLG
notes: scAb
B8: the binding result in assay [11] is reported as “binds”. In [12], this molecule came in with a LoD chemiluminescence detection of 0.12 ng/mL and a LoD colourimetric detection of 2 ng/mL. Moreover, the equilibrium dissociation constant (Kd) in [13] turned out to be 0.0004 µM. In addition, the binding result in assay [14] is listed as “binds”. The concentration for a half-maximal effect (EC50 (read off the curve)) in [15] is roughly 0.9 mg/L.

B9: S1B1 scAb (scFv, not shown: small tags and cut ends)
scFv: QVQLQESGPSLVKPSQTLSLTCTVSGFSLSSNSVGWVRQAPGKAPEWVAGIDTDGEEGYNPALNSRLSITRDTSKSQVSLSLSSVTSEDTAVYYCVRSYRTDGLAYGYVQAIDYWGPGLLVTVSSEGKSSGASGESKVDDQAVLTQPSSVSGSLGQRVSITCSGSFIGISSVGWFQQLPGSGLRTVIVASDGRPSGVPDRFSNSKSGNTATLTISSLQAEDEADYFCGSSDRTQYTGVFGSGTRLTVLG
notes: scAb
With B9, the binding result in [16], in assay [3] and in [15] was “binds” throughout.

B10: 3aD6 scAb (scFv, not shown: small tags and cut ends)
scFv: QVQLQESGPSLVKPSQTLSLTCTVSGFSLTSNAVIWVRQAPGKAPEWVALIDVDGDAAYDPALKSRLSITRDTSKSQVSLSLRSVTTEDTAVYYCARDYGSWGYVSDIDYWGPGLLVTVSSEGKSSGASGESKVDDQAVLTQPSSVSGSLGQRVSITCSGSDIGGADVGWFQQVPGSGLRTLIYDNDNRPSGVPDRFSGSKSGNTATLTISSLQPEDEADYFCGTYSGANYGIFGSGTRLTVLG
notes: scAb
For B10, the binding result in assay [8] is recorded as “binds”.
